Source: the supplement of paper PMC7125110
± gives the standard error. Variants at the floor of the assay were thinned out.

B1: glmS ribozyme (parent)
chain: AUAAAAGCGCCAGAACUACAGAAAUGUAGUUGACGAGGAGGAGGUUUAUCGAAUUUUCGGCGGAUGCCUCCAAA

Variants of: B1
Assay: self-cleavage kobs at 640 uM GlcN6P; higher = faster cleavage; RNA array
Details: with glucosamine-6-phosphate
Summary of the method: (§1)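 Tiles bearing barcoded ribozyme variants, transcribed in situ by E. coli RNA polymerase on sequenced MiSeq chips, were imaged over ~14 h at 37 °C using a hybridised Cy3 probe. Glucosamine-6-phosphate was supplied at 40 μM to 10 mM in HEPES/KCl/Mg(OAc)2 buffer. kobs came from one- or two-exponential decay fits to normalised per-tile medians, and weighted Michaelis–Menten fits then provided kcat and KM.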

Row | Variant | self-cleavage kobs at 640 uM GlcN6P
1 | C8A U54C A64C | < 1e-05 s⁻¹
2 | C8G G9U G51C | < 1e-05 s⁻¹
3 | G9U A15C C67U | < 1e-05 s⁻¹
4 | G7C C58G | < 1e-05 s⁻¹
5 | C8A C16A G32C A42G | < 1e-05 s⁻¹
6 | C8U A12U G37U C61A A64U C67G | 0.000544 ± 0.00022 s⁻¹
7 | C8G A14C G63A | < 1e-05 s⁻¹
8 | A6U G41A G44C C67G C70G | < 1e-05 s⁻¹
9 | G7C U31C G40C | < 1e-05 s⁻¹
10 | C10A C61G A64G C68G | 9.09e-05 ± 4.3e-05 s⁻¹
11 | C8U G13U U47C G51C | < 1e-05 s⁻¹
12 | G7U C70A | 0.000596 ± 0.00023 s⁻¹
13 | G9A C10G G29U G62A | < 1e-05 s⁻¹
14 | G9C C10U G13U | < 1e-05 s⁻¹
15 | G7C G9C | < 1e-05 s⁻¹
16 | G9U C11U U30G | < 1e-05 s⁻¹
17 | G9U C10U C34G A53U G63C U65A | < 1e-05 s⁻¹
18 | G7A G9C A33U G66C | < 1e-05 s⁻¹
19 | G7A C11A C34U A36C U45A | < 1e-05 s⁻¹
20 | C8A A36C C68U | < 1e-05 s⁻¹
21 | G7U G41A U69G | < 1e-05 s⁻¹
22 | C10A C16A G51U A64C | < 1e-05 s⁻¹
23 | G9C A12G G29A | < 1e-05 s⁻¹
24 | G7C A14C A52U | < 1e-05 s⁻¹

Row | Variant | self-cleavage kobs at 640 uM GlcN6P
25 | G9U U56G U65C C67G | < 1e-05 s⁻¹
26 | C8A G9C G29C G35U | < 1e-05 s⁻¹
27 | G7C A12G U46G U47A | < 1e-05 s⁻¹
28 | G9C U31C C67U | < 1e-05 s⁻¹
29 | C10G A15G A39U G60C C68A | < 1e-05 s⁻¹
30 | A6U C11G A14C G41U | < 1e-05 s⁻¹
31 | G7A U31G C67U | < 1e-05 s⁻¹
32 | G7A C11G A15C C50A U54C | < 1e-05 s⁻¹
33 | G7U A53U U65G | < 1e-05 s⁻¹
34 | G9A G35U U47A C70U | < 1e-05 s⁻¹
35 | G9A U30G A39U | < 1e-05 s⁻¹
36 | G9U A12G A14C A53C | < 1e-05 s⁻¹
37 | G9U A42U A48C C50G G63C C67U | < 1e-05 s⁻¹
38 | A6U U55G A64C | < 1e-05 s⁻¹
39 | C10U A14U C16G U45G | < 1e-05 s⁻¹
40 | C8G A14U U49G A53U C61U | < 1e-05 s⁻¹
41 | G9C G63U G66A C68A C71A | < 1e-05 s⁻¹
42 | G7U A39C U57G G63C C68U | < 1e-05 s⁻¹
43 | C8U C10U A14U G43A | < 1e-05 s⁻¹
44 | G7U A15C A39C | < 1e-05 s⁻¹
45 | C10G A14G U31A C34U G51C A53U U54C G66U | < 1e-05 s⁻¹
46 | C8A C50G C58G G62A | 0.000111 ± 3.2e-05 s⁻¹
47 | A6U G29U A52C | < 1e-05 s⁻¹
48 | G7A G40A A42C C67G | < 1e-05 s⁻¹

Row | Variant | self-cleavage kobs at 640 uM GlcN6P
49 | G7U U30C C61A | < 1e-05 s⁻¹
50 | C10U A15G G37A G38C A53U | < 1e-05 s⁻¹
51 | G9A G44C C68U U69A | < 1e-05 s⁻¹
52 | C8A C16A A39U G59U | < 1e-05 s⁻¹
53 | G7C U56G C67U | < 1e-05 s⁻¹
54 | G9C U65A C68G | 0.000522 ± 0.00017 s⁻¹
55 | G9U A42G | < 1e-05 s⁻¹
56 | C10G C11G A33U C68G | 4.85e-05 ± 2.2e-05 s⁻¹
57 | C10U A52C G66A | < 1e-05 s⁻¹
58 | C8U G62A C70U | 6.07e-05 ± 2.6e-05 s⁻¹
59 | C8G C61U C68U | < 1e-05 s⁻¹
60 | C8U A36C A48G U49C | < 1e-05 s⁻¹
61 | C10G G44C | < 1e-05 s⁻¹
62 | A6U C10G A53C G62U | < 1e-05 s⁻¹
63 | G7C A12U A15C | < 1e-05 s⁻¹
64 | A6U A33G U54A | < 1e-05 s⁻¹
65 | G9U C10G A15G G38U A39G A52U | < 1e-05 s⁻¹
66 | C8U C10G C67G | 0.000675 ± 0.00032 s⁻¹
67 | G7U U45A A53G U56G | < 1e-05 s⁻¹
68 | G9U A15C | < 1e-05 s⁻¹
69 | C8G A42C U47A | < 1e-05 s⁻¹
70 | G7A G38A G63U C70G | 0.000112 ± 3.6e-05 s⁻¹

Variants of: B1
Assay: self-cleavage kobs at 2500 uM GlcN6P; higher = faster cleavage; RNA array
Details: with glucosamine-6-phosphate
Summary of the method: as §1

Row | Variant | self-cleavage kobs at 2500 uM GlcN6P
71 | C8A U54C A64C | < 1e-05 s⁻¹
72 | C8G A14C G63A | < 1e-05 s⁻¹
73 | A6U G41A G44C C67G C70G | < 1e-05 s⁻¹
74 | G7C U31C G40C | < 1e-05 s⁻¹
75 | G7C G9C | < 1e-05 s⁻¹
76 | G7A G9C A33U G66C | < 1e-05 s⁻¹
77 | G7A C11A C34U A36C U45A | < 1e-05 s⁻¹
78 | G7C A14C A52U | < 1e-05 s⁻¹
79 | C8A G9C G29C G35U | < 1e-05 s⁻¹
80 | G9C U31C C67U | < 1e-05 s⁻¹
81 | C10G A15G A39U G60C C68A | < 1e-05 s⁻¹
82 | A6U C11G A14C G41U | < 1e-05 s⁻¹
83 | G7A C11G A15C C50A U54C | < 1e-05 s⁻¹
84 | G7U A53U U65G | < 1e-05 s⁻¹
85 | G9A G35U U47A C70U | < 1e-05 s⁻¹
86 | G9U A12G A14C A53C | < 1e-05 s⁻¹
87 | G9C G63U G66A C68A C71A | < 1e-05 s⁻¹
88 | G7U A39C U57G G63C C68U | < 1e-05 s⁻¹
89 | C8U C10U A14U G43A | < 1e-05 s⁻¹
90 | C8A C50G C58G G62A | 0.000345 ± 8.6e-05 s⁻¹
91 | G7A G40A A42C C67G | < 1e-05 s⁻¹
92 | C10G C11G A33U C68G | 9.09e-05 ± 3.3e-05 s⁻¹
93 | C10U A52C G66A | < 1e-05 s⁻¹
94 | C8G C61U C68U | < 1e-05 s⁻¹
95 | C8U A36C A48G U49C | < 1e-05 s⁻¹
96 | C10G G44C | < 1e-05 s⁻¹
97 | A6U C10G A53C G62U | < 1e-05 s⁻¹
98 | G9U C10G A15G G38U A39G A52U | < 1e-05 s⁻¹
99 | C8G A42C U47A | < 1e-05 s⁻¹

Variants of: B1
Assay: self-cleavage kobs at 10000 uM GlcN6P; higher = faster cleavage; RNA array
Details: with glucosamine-6-phosphate
Summary of the method: as §1

Row | Variant | self-cleavage kobs at 10000 uM GlcN6P
100 | G7A C11A C34U A36C U45A | < 1e-05 s⁻¹
101 | G9C U65A C68G | 6.3e-05 ± 2.2e-05 s⁻¹
102 | G9U C10G A15G G38U A39G A52U | < 1e-05 s⁻¹
103 | G9U A15C | < 1e-05 s⁻¹
